Consider two proteins from patent US10465177B2, “Maltooligosyl trehalose trehalohydrolase (MTHase) mutant and application thereof” (Jiangnan University, priority 2018, dated 2019).

Substrate in data set [1]: OC[C@H]1O[C@H](O[C@H]2[C@H](O)[C@@H](O)[C@@H](O[C@H]3[C@H](O)[C@@H](O)[C@@H](O[C@H]4[C@H](O)[C@@H](O)[C@@H](O[C@H]5[C@H](O)[C@@H](O)[C@@H](O[C@H]6[C@H](O)[C@@H](O)C(O)O[C@@H]6CO)O[C@@H]5CO)O[C@@H]4CO)O[C@@H]3CO)O[C@@H]2CO)[C@H](O)[C@@H](O)[C@@H]1O
As to the kind of experiment: purified protein, by the assay type. The conditions noted are these: other: wild type enzyme, maltohexose substrate, 60° C.

Substrate in data set [2]: OC[C@H]1O[C@H](O[C@H]2[C@H](O)[C@@H](O)[C@@H](O[C@H]3[C@H](O)[C@@H](O)[C@@H](O[C@H]4[C@H](O)[C@@H](O)[C@@H](O[C@H]5[C@H](O)[C@@H](O)[C@@H](O[C@H]6[C@H](O)[C@@H](O)C(O)O[C@@H]6CO)O[C@@H]5CO)O[C@@H]4CO)O[C@@H]3CO)O[C@@H]2CO)[C@H](O)[C@@H](O)[C@@H]1O
As to the kind of experiment: purified protein, by the assay type. The class given is biochemical, Sulfolobus acidocaldarius. The settings on record: other: mutant M140L/L202P/L218D/Y323G/F338S/I404T, maltohexose substrate, 60° C.

Changes are numbered by the printed parent chain. Numbers in names are those of the source.

B1: maltooligosyl trehalose trehalohydrolase (MTHase) derived from Sulfolobus acidocaldarius, wild type (WT), SEQ ID NO.2 (Sulfolobus acidocaldarius) (protein)
chain: MFSFGGNIEKNKGIFKLWAPYVNSVKLKLSKKLIPMEKNDEGFFEVEIDDIEENLTYSYIIEDKREIPDPASRYQPLGVHDKSQLIRTDYQILDLGKVKIEDLIIYELHVGTFSQEGNFKGVIEKLDYLKDLGITGIELMPVAQFPGNRDWGYDGVFLYAVQNTYGGPWELAKLVNEAHKRGIAVILDVVYNHIGPEGNYLLGLGPYFSDRYKTPWGLTFNFDDRGCDQVRKFILENVEYWFKTFKIDGLRLDAVHAIFDNSPKHILQEIAEKAHQLGKFVIAESDLNDPKIVKDDCGYKIDAQWVDDFHHAVHAFITKEKDYYYQDFGRIEDIEKTFKDVFVYDGKYSRYRGRTHGAPVGDLPPRKFVVFIQNHDQVGNRGNGERLSILTDKTTYLMAATLYILSPYIPLIFMGEEYYETNPFFFFSDFSDPVLIKGVREGRLKENNQMIDPQSEEAFLKSKLSWKIDEEVLDYYKQLINIRKRYNNCKRVKEVRREGNCITLIMEKIGIIASFDDIVINSKITGNLLIGIGFPKKLKKDELIKVNRGVGVYQLE
Take B1: the Michaelis-Menten constant (Km) in data set [1] was determined as 3.89 ± 0.34 mM.

B2: maltooligosyl trehalose trehalohydrolase (MTHase) derived from Sulfolobus acidocaldarius (parent SEQ ID NO.2), mutant M140L/L202P/L218D/Y323G/F338S/I404T … (protein)
chain: B1 chain with M140L, L202P, L218D, Y323G, F338S, I404T
notes: sextuple site-directed mutant of the 556-aa parent
As to B2, in data set [2], the Km amounted to 3.4 ± 0.94 mM.

One may read the Km as the substrate concentration at which the rate is half of its maximum.
